# Where two headings read alike, the source gives them in different places.
# T1: recombinant soluble (ΔGPI) Fc-tagged RECK (sRECK-Fc) (human, UniProt O95980 23-942)
# T1 sequence (looked up): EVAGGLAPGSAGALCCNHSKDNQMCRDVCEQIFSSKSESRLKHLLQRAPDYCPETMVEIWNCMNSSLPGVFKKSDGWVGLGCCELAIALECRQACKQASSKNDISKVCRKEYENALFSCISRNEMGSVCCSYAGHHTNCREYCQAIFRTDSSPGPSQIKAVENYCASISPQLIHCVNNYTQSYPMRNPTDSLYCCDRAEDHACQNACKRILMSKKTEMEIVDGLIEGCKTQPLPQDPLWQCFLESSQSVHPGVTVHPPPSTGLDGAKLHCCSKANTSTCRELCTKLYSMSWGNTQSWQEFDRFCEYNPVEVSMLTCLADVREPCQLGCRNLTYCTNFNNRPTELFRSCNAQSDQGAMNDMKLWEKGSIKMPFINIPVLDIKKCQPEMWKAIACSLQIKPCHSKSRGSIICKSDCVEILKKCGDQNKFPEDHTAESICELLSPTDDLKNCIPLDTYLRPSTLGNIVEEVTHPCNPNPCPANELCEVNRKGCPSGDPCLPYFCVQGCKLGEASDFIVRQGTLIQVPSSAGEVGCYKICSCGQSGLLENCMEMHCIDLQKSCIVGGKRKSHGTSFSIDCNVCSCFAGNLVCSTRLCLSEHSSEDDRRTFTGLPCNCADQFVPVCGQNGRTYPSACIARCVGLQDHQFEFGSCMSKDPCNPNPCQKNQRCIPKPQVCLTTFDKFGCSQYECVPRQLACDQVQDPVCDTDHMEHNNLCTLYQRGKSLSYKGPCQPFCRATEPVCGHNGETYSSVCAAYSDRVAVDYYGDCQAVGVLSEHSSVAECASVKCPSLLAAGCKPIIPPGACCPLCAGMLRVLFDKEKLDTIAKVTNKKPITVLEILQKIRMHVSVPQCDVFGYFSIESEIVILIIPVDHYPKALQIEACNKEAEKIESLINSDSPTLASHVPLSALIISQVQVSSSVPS
# T2: C-terminally His-tagged soluble RECK (sRECK-His) (human, UniProt O95980 23-942)
# T2 sequence (looked up): T1 sequence (looked up)
# B1: sGPR124 ΔHRM (Δaa 349 - 426) (domain or fragment, human)
# chain: APGCPLSIRSCKCSGERPKGLSGGVPGPARRRVVCSGGDLPEPPEPGLLPNGTVTLLLSNNKITGLRNGSFLGLSLLEKLDLRNNIISTVQPGAFLGLGELKRLDLSNNRIGCLTSETFQGLPRLLRLNISGNIFSSLQPGVFDELPALKVVDLGTEFLTCDCHLRWLLPWAQNRSLQLSEHTLCAYPSALHAQALGSLQEAQLCCEGALELHTHHLIPSLRQVVFQGDRLPFQCSASYLGNDTRIRWYHNRAPVEGDEQAGILLAESLIHDCTFITSELTLSHIGVWASGEWECTVSMAQGNASKKVEIVVLETLYTFVLMPINASNALTLAHQLRVYTAEAASFSDMMDVVYVAQMIQKFLGYVDQIKELVEVMVDMASNLMLVDEHLLWLAQREDKACSRIVGALERIGGAALSPHAQHISVNARNVALEAYLIKPHSYVGLTCTAFQRREGGVPGTRPGSPGQNPPPEPEPPADQQLRFRCTTGRPNVSLSSFHIKNSVALASIQLPPSLFSSLPAALAPPVPPDCTLQLLVFRNGRLFHSHSNTSRPGAAGPGKRRGVATPVIFAGTSGCGVGNLTEPVAVSLRHWAEGAEPVAAWWSQEGPGEAGGWTSEGCQLRSSQPNVSALHCQHLGNVAVLMELDGGGS
# B2: recombinant soluble GPR124 ECD (sGPR124), C-terminally His-tagged (domain or fragment)
# chain: APGCPLSIRSCKCSGERPKGLSGGVPGPARRRVVCSGGDLPEPPEPGLLPNGTVTLLLSNNKITGLRNGSFLGLSLLEKLDLRNNIISTVQPGAFLGLGELKRLDLSNNRIGCLTSETFQGLPRLLRLNISGNIFSSLQPGVFDELPALKVVDLGTEFLTCDCHLRWLLPWAQNRSLQLSEHTLCAYPSALHAQALGSLQEAQLCCEGALELHTHHLIPSLRQVVFQGDRLPFQCSASYLGNDTRIRWYHNRAPVEGDEQAGILLAESLIHDCTFITSELTLSHIGVWASGEWECTVSMAQGNASKKVEIVVLETSASYCPAERVANNRGDFRWPRTLAGITAYQSCLQYPFTSVPLGGGAPGTRASRRCDRAGRWEPGDYSHCLYTNDITRVLYTFVLMPINASNALTLAHQLRVYTAEAASFSDMMDVVYVAQMIQKFLGYVDQIKELVEVMVDMASNLMLVDEHLLWLAQREDKACSRIVGALERIGGAALSPHAQHISVNARNVALEAYLIKPHSYVGLTCTAFQRREGGVPGTRPGSPGQNPPPEPEPPADQQLRFRCTTGRPNVSLSSFHIKNSVALASIQLPPSLFSSLPAALAPPVPPDCTLQLLVFRNGRLFHSHSNTSRPGAAGPGKRRGVATPVIFAGTSGCGVGNLTEPVAVSLRHWAEGAEPVAAWWSQEGPGEAGGWTSEGCQLRSSQPNVSALHCQHLGNVAVLMELDGGGS
# B3: WNT7A (co-expressed with sRECK-His in Expi293F cells) (ligand, human, UniProt O00755 32-349, looked up)
# chain: LGASIICNKIPGLAPRQRAICQSRPDAIIVIGEGSQMGLDECQFQFRNGRWNCSALGERTVFGKELKVGSREAAFTYAIIAAGVAHAITAACTQGNLSDCGCDKEKQGQYHRDEGWKWGGCSADIRYGIGFAKVFVDAREIKQNARTLMNLHNNEAGRKILEENMKLECKCHGVSGSCTTKTCWTTLPQFRELGYVLKDKYNEAVHVEPVRASRNKRPTFLKIKKPLSYRKPMDTDLVYIEKSPNYCEEDPVTGSVGTQGRACNKTAPQASGCDLMCCGRGYNTHQYARVWQCNCKFHWCCYVKCNTCSERTEMYTCK
# Experiments:
# [1] = target: T1, recombinant soluble (ΔGPI) Fc-tagged …; assay: pull-down
# [2] = target: T1, recombinant soluble (ΔGPI) Fc-tagged …; assay: pull-down; remark: listed apart in the source
# [3] = target: T2, C-terminally His-tagged soluble RECK …; assay: cross-linking
binder,measurement,setting,value
B1,binding result,[1],binds
B2,binding result,[2],binds
B3,stoichiometry N,[3],1

# — article PMC6338448 (Cell reports, 2018)
